From paper PMC3954457 (The Journal of biological chemistry, 2006) come the findings set out here.

Test [1] deals with X di-domain (XDD) of human E3 binding protein: lipoyl domain and subunit binding domain (human). Kind of test: ITC. Background: In ITC the heat of successive injections is recorded.
Test [2] addresses T1, human dihydrolipoamide dehydrogenase (E3) (human, UniProt P09622 36-509).
T1 sequence: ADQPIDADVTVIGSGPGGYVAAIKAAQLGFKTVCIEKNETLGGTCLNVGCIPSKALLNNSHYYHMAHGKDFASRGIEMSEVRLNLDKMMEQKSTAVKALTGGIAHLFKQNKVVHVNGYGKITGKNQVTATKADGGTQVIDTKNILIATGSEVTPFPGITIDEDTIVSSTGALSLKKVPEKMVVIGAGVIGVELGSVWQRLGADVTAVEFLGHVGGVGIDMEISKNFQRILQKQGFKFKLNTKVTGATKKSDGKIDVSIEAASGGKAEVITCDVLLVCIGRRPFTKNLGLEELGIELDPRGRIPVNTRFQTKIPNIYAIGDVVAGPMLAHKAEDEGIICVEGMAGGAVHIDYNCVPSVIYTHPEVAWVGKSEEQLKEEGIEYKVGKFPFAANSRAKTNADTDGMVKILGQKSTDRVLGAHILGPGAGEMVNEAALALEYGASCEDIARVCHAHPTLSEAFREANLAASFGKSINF
Kind of test: native gel or EMSA. (In general: In EMSA bound probe runs differently from free probe, usually more slowly.)

For the molecule “human dihydrolipoamide dehydrogenase (E3) (from UniProt P09622 36-509) (enzyme)”, in test [1], the dH is -12.1 kcal/mol and the stoichiometry N is 0.5 E3:XDD.

B1: X subunit binding domain (XSBD) of human E3 binding protein (domain or fragment)
chain: QISIPVKKEHIPGTLRFRLSPAARNILEKHSLDASQGTATGPRGIFTKEDALKLVQLKQTGKITE
With B1, the “stoichiometry N” value in test [2] was 2 XSBD:E3.

A word on the stoichiometry N: it is a count of units in the complex or per binding partner.
